Measurements from PMC4356373, “The structure of the hexameric atrazine chlorohydrolase AtzA” (Acta Crystallographica Section D: Biological Crystallography, 2015).

How the values were obtained:
[1] = target: the molecule itself; test: crystal structure; two crystal forms: P22(1)2(1) at 2.8 Å (two hexamers in the asymmetric unit) and P2(1)2(1)2(1) at 2.2 Å (one hexamer); PEG 8000 or PEG 10 000, 50 mM HEPES pH 7.1-7.3, 281 K
[2] = target: the molecule itself; test: SEC; purified variant, size by SEC; data not shown

| Protein | stoichiometry N [1] | stoichiometry N [2] |
| --- | --- | --- |
| Atrazine chlorohydrolase (AtzA), wild type (enzyme, Pseudomonas sp. strain ADP, Atrazine chlorohydrolase AtzA of Pseudomonas sp. strain ADP, wild-type atzA gene in the pCS150 expression vector; about 470 amino acids; one Fe2+ per monomer; hexamer is a trimer of dimers; also called wild-type protein; source: E. coli BL21 λDE3, purified (Ni-NTA, SEC, thrombin cleavage of the His tag, SEC)) MQTLSIQHGTLVTMDQYRRVLGDSWVHVQDGRIVALGVHAESVPPPADRVIDARGKVVLPGFINAHTHVNQILLRGGPSHGRQFYDWLFNVVYPGQKAMRPEDVAVAVRLYCAEAVRSGITTINENADSAIYPGNIEAAMAVYGEVGVRVVYARMFFDRMDGRIQGYVDALKARSPQVELCSIMEETAVAKDRITALSDQYHGTAGGRISVWPAPATTTAVTVEGMRWAQAFARDRAVMWTLHMAESDHDERIHGMSPAEYMECYGLLDERLQVAHCVYFDRKDVRLLHRHNVKVASQVVSNAYLGSGVAPVPEMVERGMAVGIGTDNGNSNDSVNMIGDMKFMAHIHRAVHRDADVLTPEKILEMATIDGARSLGMDHEIGSIETGKRADLILLDLRHPQTTPHHHLAATIVFQAYGNEVDTVLIDGNVVMENRRLSFLPPERELAFLEEAQSRATAILQRANMVANPAWRSL | 6 |  |
| AtzA Ala170Thr, Met256Ile, Pro258Thr, Tyr261Ser variant (enzyme, Pseudomonas sp. strain ADP, synthetic gene (Life Technologies) subcloned into pCS150; The PDB entries hold the wild-type parent of the same vector, not this variant; also called AtzA variant; the variant; source: E. coli BL21 λDE3, purified (Ni-NTA, SEC, thrombin cleavage of the His tag, SEC)) MQTLSIQHGTLVTMDQYRRVLGDSWVHVQDGRIVALGVHAESVPPPADRVIDARGKVVLPGFINAHTHVNQILLRGGPSHGRQFYDWLFNVVYPGQKAMRPEDVAVAVRLYCAEAVRSGITTINENADSAIYPGNIEAAMAVYGEVGVRVVYARMFFDRMDGRIQGYVDTLKARSPQVELCSIMEETAVAKDRITALSDQYHGTAGGRISVWPAPATTTAVTVEGMRWAQAFARDRAVMWTLHMAESDHDERIHGISTAESMECYGLLDERLQVAHCVYFDRKDVRLLHRHNVKVASQVVSNAYLGSGVAPVPEMVERGMAVGIGTDNGNSNDSVNMIGDMKFMAHIHRAVHRDADVLTPEKILEMATIDGARSLGMDHEIGSIETGKRADLILLDLRHPQTTPHHHLAATIVFQAYGNEVDTVLIDGNVVMENRRLSFLPPERELAFLEEAQSRATAILQRANMVANPAWRSL |  | 2 |
